Source: the supplement of paper PMC9170038

Test system: K4 kissing-loop RNA reporter
Test: apparent KD of K4 kissing-loop reporter; higher = weaker reporter binding
Details: Eterna round: R107
Protocol: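 RNA-MaP round R107: designed RNA switches with theophylline, tryptophan, arginine or FMN aptamers are transcribed on-chip within common flanks. They are titrated with a labelled K4 kissing-loop RNA reporter in RNA-MaP buffer (100 mM Tris pH 7.5, 80 mM KCl, 4 mM MgCl2), without ligand or with the indicated ligand. Median apparent KD per design.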

[1] = input ligand: theophylline 20 uM
[2] = input ligand: tryptophan 2.4 mM
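Note: bound reporter read as fluorescence of individual clusters on recovered sequencing chips by microscopy, with normalized cluster intensities fitted with a binding model.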

| Sequence | apparent KD of K4 kissing-loop reporter (input ligand: FMN 200 uM) | apparent KD of K4 kissing-loop reporter (input ligand: arginine 13.2 mM) | apparent KD of K4 kissing-loop reporter (input ligand: none) | apparent KD of K4 kissing-loop reporter [1] | apparent KD of K4 kissing-loop reporter [2] |
| --- | --- | --- | --- | --- | --- |
| GGAUAGGACAGAGGAUAUGGGCUAGGCAAGAAUAACUUGUCUAGCAAAUCCAUGAGGAGUGAUGUUCCAGAAGGUUGUCCUAUCG [FmnBX 1 U75] | 284 nM | 108 nM | 92.3 nM | 120 nM | 87.8 nM |
| GGAUAGGACAGAGGAUAUGGUAGUGAUGUUACCAAACUGGUUACUAAUGUCAGAAAACUGGCAAAUCCAGAAGGCUGUCCUAUCG [KL-XFMN-B13] | 278 nM | 76.3 nM | 85.2 nM | 69.5 nM | 82.3 nM |
| GGAUAGGAUAGAGGAUAUGGGUUAGGCAAGAAUAACUUGUCUUGUAAAUCCAUGAGGAGUGAUGUUCCAGAAGGCUGUCCUAUCG [MatMod 5 - Jieux - Exclusion - FMN B] | 301 nM | 113 nM | 112 nM | 114 nM | 93.6 nM |
| GGAUCCACCAGUGAUGUUGGAGAAAACUCAAAGGAUAUGACGAAAGUCAGAAGGUUGUAGACUGGACAAAGUCCGGUCGGAUCCA [FmnA 19 A30+U56] | 450 nM | 504 nM | 650 nM | 613 nM | 475 nM |
| GGAUCCACCAGUGAUGUUGGAGAAAACUCUAAGGAUAUGACGAAAGUCAGAAGGUAGUAGACUGGACAAAGUCCGGUCGGAUCCA [FmnA 23 U30+A56] | 583 nM | 376 nM | 1190 nM | 661 nM | 484 nM |
| GGAUCCACCAGUGAUGUUGGAGAAAACUUCAAGGAUAUGACGAAAGUCAGAAGGUGGUAGACUGGUCAAAGUCCGGUCGGAUCCA [FmnA10 U29+U66] | 658 nM | 120 nM | 459 nM | 147 nM | 194 nM |
| GGAUCCGCCAGUGAUGUUGGAGAAAACUCCAAGGAUAUGACGAAAGUCAGAAGGUGGUAGACUGGACAAAGUCCGGUCGGAUCCA [FmnA 26 #SwitchBubble #K4Early] | 761 nM | 331 nM | 932 nM | 157 nM | 442 nM |
| GGAUCGCAUGGCGAAAAGCCAUGCGAUCCACGAGGACCGGUACGGCCGCCACUCGCCGGAGUGAUGUUCCGCUACAGAUCUUAAA | 187 nM | 121 nM | 256 nM | 144 nM | 301 nM |
| GGAUUCACCAGUGAUGUUGGAGAAAACUCGAAGGAUAUGACGAAAGUCAGAAGGUCGUAGACUGGACAAAGUCCGGUCGGAUCCA [KL-SSFMN-A22] | 419 nM | 250 nM | 299 nM | 359 nM | 279 nM |
| GGAUUGCCAGUGAUGUUGGCAUAAACUGAAGGAGCGCGUGAAAACGCAGGUAGGUCGCAGAACCUUGCCAACUAUAUUAUUUACC [Ex Arginine A K4 22] | 111 nM | 137 nM | 123 nM | 146 nM | 102 nM |
| GGCACUUUUGCUUGGAACCGUCAAGCUCUUUAGGAUAUCUGGAAACAGAGAAGGAAAGACCUACAGAGUGAUGUUCUGCGUGCCU | 332 nM | 133 nM | 273 nM | 183 nM | 144 nM |
| GGCAGAGUGAUGUUCGCCCUUUACCUUGAUACCAGUUCAUCUCAAAACCCUUGGCAGCAAGUGUGUAAGAGCGGUAUUGGUCAAU [theeternabot_exclusion_KL_Theo_A_1] | 356 nM | 306 nM | 388 nM | 359 nM | 339 nM |
| GGCAGUGAUGUUGCCAGUGGCAGAUUGGAAGGAGCGUGGUGAGACACAGGUAGGUCGCUAAUUGAAGUUGCUGUCACUAGAAUGC [whbob_Ex_Arginine_A_2t132] | 214 nM | 280 nM | 293 nM | 335 nM | 231 nM |
| GGCAUGCGUAGAGUGAUGUUCUAAGAUGAUACCAGUGCGGAAACGCACCCUUGGCAGCAUCUGACUGGCAUGCCGGCGAAAGCCU | 871 nM | 811 nM | 1240 nM | 770 nM | 982 nM |
| GGCCGCAAGGCGGGCCGGCCCACUCCGGAAGGAGCGCCCGCAAGGGCAGGUAGGUCGCCGGAGUGAUGUUCCGGUGGCCGGCCCG [#2 Exclusion - Arginine A Attempt #2 (Inspired by Omei)] | 140 nM | 136 nM | 133 nM | 93.8 nM | 130 nM |
| GGCCGGAAGGCGAGCGCUCCCACUCCGGAAGGAGCGCCCGGAAGGGCAGGUAGGUCGCCGGAGUGAUGUUCCGGUGGAGGGCUCG [#2 Exclusion - Arginine A Attempt #19 (Inspired by Omei)] | 141 nM | 120 nM | 80.4 nM | 271 nM | 70.2 nM |
| GGCCGGUUGAAAGGCCGGCCAGAAACCGAAGGAGCGCGAAGAAACGCAGGUAGGUCGCGGAAAACAUGACCAGUGAUGUUGGUCG | 152 nM | 173 nM | 154 nM | 152 nM | 144 nM |

| Sequence | apparent KD of K4 kissing-loop reporter (input ligand: FMN 200 uM) | apparent KD of K4 kissing-loop reporter (input ligand: arginine 13.2 mM) | apparent KD of K4 kissing-loop reporter (input ligand: none) | apparent KD of K4 kissing-loop reporter [1] | apparent KD of K4 kissing-loop reporter [2] |
| --- | --- | --- | --- | --- | --- |
| GGCGAUGAGUGAUGUUCAAAGAAUAAUGAUACCAGCUGAUGUCGAAGCCCUUGGCAGCAUAGAUACACCAAGUGAUGGUAAUGCC [Default title] | 193 nM | 209 nM | 237 nM | 235 nM | 143 nM |
| GGGAACUCUUACGAUACCAGCCGGAGUGAUGUUCCGUGCUUGGACGUAGUAACCCGCACCGGCCCUUGGCAGCGUGGAUCUUGUG [Esgeonin] | 80.6 nM | 65.5 nM | 78.1 nM | 73.2 nM | 83.5 nM |
| GGGAAGAAGGCGGCCGCCACUGCAGAAGAGACAGAGAGGGUAGAAGAGGAGUGAUGUUCCAAGAACAGGACCGGGCCAAGAAGGG [whbob_SS_Tryp_B_t30] | 226 nM | 172 nM | 226 nM | 237 nM | 137 nM |
| GGGAGCAAAGCUCCCGGAUGCUAUUACCAGGAGGAUAUCUGGAAACAGAGAAGGCCUAAGCCAGUGAUGUUGGUUUCGAGCAUCC | 184 nM | 257 nM | 278 nM | 305 nM | 274 nM |
| GGGAGGAGUGGUGUUGAUUAAGAAGCGGAAGGAGCGCCGAAGAAGGCAGGUAGGUCGCCGAAAUAUAGUGAUGUUAUAUAAAGGG [ExArg.C] | 340 nM | 198 nM | 281 nM | 262 nM | 208 nM |
| GGGAGUAGUGCGGCCGCCACUGAGAAAGAAGAAGAAUAUAGUGAUGUUAUAUAGGAAUAAAAGAAUAGGACCGGGCAUUAGAUUU [SSTRyptB.S] | 165 nM | 245 nM | 269 nM | 215 nM | 159 nM |
| GGGAGUAGUGCGGCCGCCACUGUGAAAGAAGAAGAAUAUAGUGAUGUUAUAUAGGAAUUAAAGAAUAGGACCGGGCAUUAGAUUU [SSTRyptB.Q] | 248 nM | 198 nM | 260 nM | 311 nM | 184 nM |
| GGGCAUCUGGCUGAUACCAGUGAUAAAGGGUAAGAGACAGGGAGUGAUGUUCCCUUUAGCCACCCUUGGCAGCAGUUUAAGUUUG [Exclusion Theophylline B GF 17] | 83.5 nM | 83.3 nM | 94.7 nM | 85.4 nM | 76.4 nM |
| GGGCAUGUUAAAGGAUAUAGCAGGUGAUACAAGAAAGUGAGUGAUGUUUAUGUAGAUGAUGAUAUGUUAGAAGGUUAACAAAACC [abcdefghijklm] | 597 nM | 475 nM | 620 nM | 529 nM | 374 nM |
| GGGCCGCGCGCGGCCGCCACUCAGUGAUGUUGGGUGAGCUUUGCUGUGCGUGCUGUUUCGUGACGGAGGACCGGGCGCGCGGCCU [BDazzled 2] | 129 nM | 93.6 nM | 121 nM | 113 nM | 215 nM |
| GGGCGCGGCGCGGCCGCCACUGGGCCUGGGCGCUCGCUGAGUGAUGUUCGUCGGCGGCUGGGUCGUAGGACCGGGUGCCGGCUGG [BDazzled - #4 SS Tryptophan B] | 735 nM | 533 nM | 1320 nM | 627 nM | 269 nM |
| GGGCGUGGCGCGGCCGCCACUGGGCCUGGGCGCUCGCUGAGUGAUGUUCGUCGGCGGUUGGGUCGUAGGACCGGGUGCUGGUUGG [BDazzled - #8 SS Tryptophan B] | 402 nM | 199 nM | 516 nM | 281 nM | 253 nM |
| GGGCGUUACGGAGUGAUGUUCCGUAGCGAUACCAGCCAUUGCGAUGGCCCUUGGCAGCGCUAUAAGCAUAGAAUUGUAGCGCUUA [Theo A Ex t7b] | 109 nM | 94.1 nM | 108 nM | 102 nM | 105 nM |
| GGGCUAUAGUGAUGUUAUUGUCUAAACGAUACCAGUUCACCCGUGAACCCUUGGCAGCGUGGUGUAACCUAUCCUCGUUGCACUG [theeternabot_sameState_KL_Theo_A_28] | 640 nM | 595 nM | 744 nM | 523 nM | 554 nM |
| GGGUGGCAGGCGGCCGCCACUCUGAGGGUCCACAGUGAUGUUGUGGGCGCGUAAGCGUCUUCAUAGAGGACCGGGUUUGUUGUUC [Same State Tryptophan B GF 24] | 422 nM | 308 nM | 454 nM | 403 nM | 338 nM |
| GGGUUUGCCGGAAGGAGCGCACUAUGGAGUGAUGUUCCAUGACCGCACAGCUUGCGGUCAGUGCAGGUAGGUCGCCGGUAACGUU [Enatbeve] | 237 nM | 181 nM | 180 nM | 201 nM | 194 nM |
